In patent US20240317834A1, “COMPOSITIONS AND METHODS FOR NEUROLOGICAL DISEASES” (CODA BIOTHERAPEUTICS, INC., priority 2020, published 2024):

Test system: Lenti-X 293T cells
Experiment: YFP fluorescence quenching anion reporter plate reader assay of engineered receptors stimulated with acetylcholine or a non-native ligand
Type: cell-based
How it was run: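 YFP quench was followed for about 1 min 43 s after ligand delivered in iodide-based ECS, pH 7.2. Values are end-of-read fluorescence (last 10 s) divided by the pre-ligand baseline (15 s). Cells were LX293T, transfected with receptor DNA a day before the assay.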

B1: CODA109: engineered chimeric LGIC receptor, S170T in SEQ ID NO: 33 (protein)
chain: MRCSPGGVWLALAASLLHVSLQGEFQRKLYKELVKNYNPLERPVANDSQPLTVYFSLSLLQIMDVDEKNQVLTTNIWLQMSWTDHYLQWNVSEYPGVKTVRFPDGQIWKPDILLYNSADERFDATFHTNVLVNSSGHCQYLPPGIFKSSCPMDLKNFPMDVQTCKLKFGTWSYGGWSLDLQMQEADISGYIPNGEWDLVGIPGKRSERFYECCKEPYPDVTFTVTMRRRMGYYLIQMYIPSLLIVILSWISFWINMDAAPARVGLGITTVLTMTTQSSGSRASLPKVSYVKAIDIWMAVCLLFVFSALLEYAAVNFVSRQHKELLRFRRKRRHHKSPMLNLFQEDEAGEGRFNFSAYGMGPACLQAKDGISVKGANNSNTTNPPPAPSKSPEEMRKLFIQRAKKIDKISRIGFPMAFLIFNMFYWIIYKIVRREDVHNQ
modifications: synthetic sequence of chimeric LGIC
B1 was tested, and the “YFP fluorescence quenching using CNL001” value (1 nM CNL001, first column) was 19.755%, the “YFP fluorescence quenching using CNL001” value (1 nM CNL001, second column) was 65.484% and the “YFP fluorescence quenching using TC-5619/Bradanicline” value (3 nM brd) was 70.58%. For the same molecule, the “YFP fluorescence quenching using Varenicline” value (3 nM var, first column) was −20.96, the “YFP fluorescence quenching using Varenicline” value (3 nM var, second column) was −19.953 and the “YFP fluorescence quenching using CNL001” value (10 nM CNL001, first column) was 79.024%. The “YFP fluorescence quenching using CNL001” value (10 nM CNL001, second column) was 81.563%, the “YFP fluorescence quenching using TC-5619/Bradanicline” value (30 nM brd) was 80.71% and the “YFP fluorescence quenching using Facinicline” value (30 nM fac) was 76.45. The “YFP fluorescence quenching using Varenicline” value (30 nM var, first column) was −16.094, the “YFP fluorescence quenching using Varenicline” value (30 nM var, second column) was −21.502 and the “YFP fluorescence quenching using CNL001” value (50 nM CNL001, first column) was 81.926%. For the same molecule, the “YFP fluorescence quenching using CNL001” value (50 nM CNL001, second column) was 83.092%, the “YFP fluorescence quenching using ABT-126” value (50 nM abt) was 55.83% and the “YFP fluorescence quenching using CNL001” value (100 nM CNL001, first column) was 83%. For the same molecule, the “YFP fluorescence quenching using CNL001” value (100 nM CNL001, second column) was 83.811%, the “YFP fluorescence quenching using CNL002” value (100 nM CNL002) was 73.48% and the “YFP fluorescence quenching using ABT-126” value (100 nM abt) was 68.89%. For the same molecule, the “YFP fluorescence quenching using AZD-0328” value (100 nM azd0328) was 84.01%, the “YFP fluorescence quenching using Facinicline” value (100 nM fac) was 82.45 and the “YFP fluorescence quenching using ABT-126” value (300 nM abt) was 72.52%. The “YFP fluorescence quenching using AZD-0328” value (300 nM azd0328) was 87.08%, the “YFP fluorescence quenching using TC-5619/Bradanicline” value (300 nM brd) was 80.66% and the “YFP fluorescence quenching using Facinicline” value (300 nM fac) was 71.09. For the same molecule, the “YFP fluorescence quenching using Varenicline” value (300 nM var, first column) was 64.373, the “YFP fluorescence quenching using Varenicline” value (300 nM var, second column) was 71.198 and the “YFP fluorescence quenching using Varenicline” value (500 nM var, first column) was 71.892. The “YFP fluorescence quenching using Varenicline” value (500 nM var, second column) was 73.53, the “YFP fluorescence quenching using CNL001” value (1 uM CNL001, first column) was 81.834% and the “YFP fluorescence quenching using CNL001” value (1 uM CNL001, second column) was 83.858%. For the same molecule, the “YFP fluorescence quenching using CNL002” value (1 uM CNL002) was 70.03%, the “YFP fluorescence quenching using ABT-126” value (1 uM abt) was 70.96% and the “YFP fluorescence quenching using TC-6987” value (1 uM tc6987) was 71.45. The “YFP fluorescence quenching using Varenicline” value (1 uM var, first column) was 75.461, the “YFP fluorescence quenching using Varenicline” value (1 uM var, second column) was 78.578 and the “YFP fluorescence quenching using TC-6987” value (10 uM tc6987) was 71.04. For the same molecule, the “YFP fluorescence quenching using AZD-0328” value (30 uM azd0328) was 87.27%, the “YFP fluorescence quenching using Facinicline” value (30 uM fac) was 69.41 and the “YFP fluorescence quenching using TC-6987” value (500 uM tc6987) was 66.2. For the same molecule, the “percent quench of YFP fluorescence, 10 uM ach” value (acetylcholine 10 uM) was 82.91%, the “percent quench of YFP fluorescence, 30 uM ach” value (acetylcholine 30 uM) was 82.53% and the “percent quench of YFP fluorescence, 50 uM ach” value (acetylcholine 50 uM) was 82.11%. For the same molecule, the “percent quench of YFP fluorescence, 100 uM ach” value (acetylcholine 100 uM) was 83.68%, the “percent quench of YFP fluorescence, 1 mM ach” value (acetylcholine 1 mM) was 69.89% and the “percent quench of YFP fluorescence, 3 mM ach” value (acetylcholine 3 mM) was 78.12%.
